Among the data in the supplement of paper PMC9732359 are protein stability index values, retold here.

± gives the uncertainty stated by the source.

The series can be described thus: protein stability index of a GFP-peptide fusion (yeast GPS) (PSI 1-4); higher = more stable; sorted into four equal gates, so the index is relative within each strain. The essentials:
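Tiled yeast protein peptides of 17 residues were each joined downstream of GFP, on plasmids that also express Cherry. The pooled library was maintained in yeast, and mid-log cultures in leucine-free medium were sorted into four equal gates on the GFP/Cherry ratio. Plasmids from every gate were amplified by PCR and sequenced on Illumina, with barcodes linking reads to strains. The protein stability index of a peptide is its gate-number-weighted read frequency summed over the gates.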

As to LNKLYGGAKSRGVRPYK [RPS19A], the protein stability index by setting is: (doa10∆) 3.34 ± 0.14; (pdr5∆) 3.3 ± 0.18; (san1∆) 3.09 ± 0.061.
On to MVKLIVMLCTLTGYQNN [YJL039C/NUP192], for which the protein stability index stood at 1.9 ± 0.12 (doa10∆), 1.52 ± 0.075 (pdr5∆), 1.99 ± 0.11 (san1∆) and 1.5 ± 0.095 (ubr1∆).
For STAFQNTPLSLPTRGTL [COR1], the protein stability index was 2.27 ± 0.05 (doa10∆), 2.38 ± 0.038 (pdr5∆), 1.97 ± 0.05 (san1∆) and 2.59 ± 0.035 (ubr1∆).
With FNVEYFAKEKLTKKEKK [RPL6A], the protein stability index runs as follows: (doa10∆) 2.23 ± 0.084; (pdr5∆) 1.68 ± 0.066; (san1∆) 1.44 ± 0.12; (ubr1∆) 1.9 ± 0.073.
As for RIKNEQSALSQIIRLFY [ISW2], the protein stability index amounted to 3.08 ± 0.1 (doa10∆), 3.09 ± 0.1 (pdr5∆), 2.76 ± 0.076 (san1∆) and 3.06 ± 0.073 (ubr1∆).
For KAEKTLKSTKHSISEAE [SMC4], in that order: 2.57 ± 0.068, 1.99 ± 0.058, 1.92 ± 0.063 and 2.5 ± 0.044.
For PTRIRTKSSKEFFNTLR [RRI2], in that order: 2.73 ± 0.13, 3.01 ± 0.15, 3.06 ± 0.081 and 2.91 ± 0.11.
For IDMESDVEDDDKETQLK [POP7], in that order: 1.67 ± 0.054, 1.92 ± 0.048, 1.62 ± 0.088 and 1.98 ± 0.031.
In the case of IKFLLTFIDKERHQKQL [YCS4], the protein stability index was found to be 1.7 ± 0.18 (doa10∆) and 1.58 ± 0.27 (san1∆).
For the sequence LDIINPGSVEEVDKSKL [YDL116W/NUP84], the protein stability index (doa10∆) is 2.94 ± 0.1, the protein stability index (pdr5∆) was found to be 3.44 ± 0.11, the protein stability index (san1∆) turned out to be 3.24 ± 0.13 and the protein stability index (ubr1∆) was 3.53 ± 0.087.
For FENVKLLAEYDNIYRNL [MED4], in that order: 2.43 ± 0.052, 2.64 ± 0.045, 2.62 ± 0.071 and 2.31 ± 0.028.
EIKNWISDIPYVISLSY [YMR129W/POM152] showed a protein stability index (ubr1∆) of 1.27 ± 0.27.
For SGDRLTRASKVLEQLSG [RPL11A], the protein stability index is, setting by setting: (pdr5∆) 3.12 ± 0.13; (san1∆) 2.43 ± 0.27; (ubr1∆) 2.92 ± 0.13.
As to NLTSEIEDLRADINSNR [YOR098C/NUP1], the protein stability index (doa10∆) worked out at 2.98 ± 0.27, the protein stability index (pdr5∆) turned out to be 3.07 ± 0.12, the protein stability index (san1∆) was found to be 2.83 ± 0.12 and the protein stability index (ubr1∆) is 3.03 ± 0.084.
Turning to LDMELAELDPSLRTPIA [SEC65], the protein stability index by setting is: (doa10∆) 3.34 ± 0.14; (pdr5∆) 3.26 ± 0.092; (san1∆) 3.08 ± 0.081; (ubr1∆) 3.06 ± 0.076.
The like results for KCKEVGITAVHVKIRAT [RPS14B] were, in that order, 2.39 ± 0.063, 1.64 ± 0.051, 1.7 ± 0.1 and 2.19 ± 0.043.
In the case of RLEEESSWQIYSDENDP [RRP4], the protein stability index was found to be 2.93 ± 0.16 (pdr5∆), 2.93 ± 0.24 (san1∆) and 3.53 ± 0.16 (ubr1∆).
For the sequence KHEDLSLEQRQEVTKFA [RPN4], the protein stability index turned out to be 2.85 ± 0.15 (doa10∆), 3.05 ± 0.23 (pdr5∆) and 2.84 ± 0.1 (san1∆).
As to LFEIYRDLGDDRVFNVP [YJR042W/NUP85], the protein stability index runs as follows: (doa10∆) 2.87 ± 0.11; (pdr5∆) 3.2 ± 0.1; (san1∆) 2.75 ± 0.11; (ubr1∆) 2.89 ± 0.097.
Take GRNNGKKLKAVRIIKHT [RPS5]: the protein stability index worked out at 2.06 ± 0.12 (doa10∆), 2.25 ± 0.08 (pdr5∆), 1.79 ± 0.09 (san1∆) and 2.81 ± 0.082 (ubr1∆).
For SAETLSELIRTTLDAEK [FAS1], in that order: 2.78 ± 0.054, 2.73 ± 0.046, 2.84 ± 0.044 and 2.63 ± 0.053.
The like results for SVREINLYMLVTTCVYL [SSN8] were, in that order, 2.32 ± 0.057, 1.67 ± 0.047, 2.33 ± 0.065 and 1.92 ± 0.047.
Turning to TRGRNIIMHKDVEIGRM [RET1], the protein stability index is 3.1 ± 0.16 (pdr5∆), 2.98 ± 0.076 (san1∆) and 2.74 ± 0.15 (ubr1∆).
For the sequence QEGIEAIATTVIAHLTV [RET1], the protein stability index (doa10∆) came out at 1.86 ± 0.057, the protein stability index (pdr5∆) came to 1.93 ± 0.05, the protein stability index (san1∆) came out at 1.84 ± 0.059 and the protein stability index (ubr1∆) worked out at 2.01 ± 0.033.
For NGFSFTKFNHNKEKSNS [YOR098C/NUP1], the protein stability index worked out at 2.69 ± 0.082 (doa10∆), 2.98 ± 0.075 (pdr5∆), 2.77 ± 0.039 (san1∆) and 2.57 ± 0.052 (ubr1∆).
The like results for MGYSGWCTTCKSAENII [RET1] were, in that order, 3.21 ± 0.15, 2.99 ± 0.14, 3.22 ± 0.079 and 3.19 ± 0.094.
